Usually Kd stands for the concentration at which binding is half-saturated. High values mean lower affinity, low ones higher affinity.

The values that follow come from patent publication US20240368223A1.

Bridges are numbered along the chain shown (N, C = ends). Primed or numbered codes have the meaning given here. The star is where a group is joined. Biotin = O=C1N[C@H]2[C@H](CS[C@H]2CCCCC(=O)*)N1; PEG4′ = amino-PEG4 spacer

Test [1] has as its target human IgG (Chugai Pharmaceutical Co., Ltd.) (human). Nature of the test: SPR, BIAcore T200, IgG immobilised; 1:1 binding fit. A general note: In SPR one partner is held on a chip, and binding of the other changes the refractive index at the surface.
Test [2] shares this target. Put plainly: SPR, BIAcore T200, IgG immobilised; equilibrium value.

{Biotin-PEG4′}-GPDCAYHRGELVWCTFH-NH2 (disulfide 4-14) [Type I IgG-binding peptide …-NH2]: the Kd turned out to be 9.1 nM in test [1] and 10 nM in test [2].
